Reference: patent US20180118821A1 (Eli Lilly, published 2018)
Numbering of substitutions follows the chain as printed. Where two headings read alike, the source gives them in different places. Each block holds one molecule with its values, some of them ahead of it.

How the values were obtained:
[1] = molecular target: Cynomolgus monkey IL-33 (cynomolgus monkey); assay: cell-based or functional assay
Human IL-33 [2] = molecular target: T1, Human IL-33 (human, UniProt O95760 95-270, limits assumed); assay: cell-based or functional assay
T1 sequence: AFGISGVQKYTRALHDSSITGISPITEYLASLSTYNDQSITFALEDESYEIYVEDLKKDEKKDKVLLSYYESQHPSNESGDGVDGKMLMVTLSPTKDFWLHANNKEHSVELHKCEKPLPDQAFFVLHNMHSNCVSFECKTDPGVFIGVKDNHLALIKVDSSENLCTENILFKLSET

Cynomolgus monkey IL-33 [3] = molecular target: T2, Cynomolgus monkey IL-33 (cynomolgus monkey, UniProt A0A2K5W3I1 95-269); assay: cell-based or functional assay
T2 sequence: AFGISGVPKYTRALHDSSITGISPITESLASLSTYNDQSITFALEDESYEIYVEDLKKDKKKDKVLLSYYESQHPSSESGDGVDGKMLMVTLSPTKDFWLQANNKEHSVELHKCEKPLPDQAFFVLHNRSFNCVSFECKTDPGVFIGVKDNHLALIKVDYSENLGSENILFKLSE

Human IL-33 [4] = molecular target: T1, Human IL-33; assay: cell-based or functional assay; remark: listed apart in the source
IL-36β = molecular target: T3, IL-36β (human, UniProt Q9NZH7-2 5-157); assay: SPR (BIAcore 2000), antibody captured on Protein A, analyte at 500 nM
T3 sequence (looked up): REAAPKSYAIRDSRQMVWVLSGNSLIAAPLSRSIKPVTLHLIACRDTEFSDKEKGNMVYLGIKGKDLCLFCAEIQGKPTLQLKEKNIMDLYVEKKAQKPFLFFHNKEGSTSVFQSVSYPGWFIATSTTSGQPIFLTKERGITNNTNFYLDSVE
Method: (§1) Protein A (Calbiochem) is coupled via free amine groups to carboxyl groups on flow cells 1 and 2 of a CM5 biosensor chip (GE Healthcare) using a mixture of N-ethyl-N-(dimethylaminopropyl)-carbodiimide (EDC) and N-hydroxysuccinimide (NHS). To capture positive control antibodies, Rabbit anti-Goat IgG (Fc specific) is coupled to flow cell 3, and Rabbit anti-Rat IgG (Fc specific) is coupled to flow cell 4 (both from Jackson ImmunoResearch). Flow cells are monitored with a flow rate of 30 μL/minute using a buffer containing 0.01 M HEPES, pH 7.4, 150 mM NaCl, 0.005% surfactant P20. Antibody 43 is captured on flow cell 2 to yield a total of 300 to 800 response units (RU; results reflect flow cell 2 minus flow cell 1). Binding tests are followed by a regeneration step using glycine-HCl (pH 1.5) between each cycle. Flow cell 1 is used as a control to monitor non-specific binding of analytes tested. The exemplified antibody is tested with all analytes of the human IL-1 protein family as listed at 500 nM concentration.

IL-36α = molecular target: T4, IL-36α (human, UniProt Q9UHA7 6-158); assay: as above
T4 sequence (looked up): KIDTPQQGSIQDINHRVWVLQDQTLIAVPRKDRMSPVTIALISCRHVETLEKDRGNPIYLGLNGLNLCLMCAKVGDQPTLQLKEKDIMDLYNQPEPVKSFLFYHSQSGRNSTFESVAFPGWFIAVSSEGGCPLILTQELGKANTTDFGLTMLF
Method: as §1

IL-1β = IL-1β (human, UniProt P01584 117-269); assay: as above
Method: as §1

IL-1RA = IL-1RA (human, UniProt P18510 26-177); assay: as above
Chain of IL-1RA (P18510 26-177 limits assumed): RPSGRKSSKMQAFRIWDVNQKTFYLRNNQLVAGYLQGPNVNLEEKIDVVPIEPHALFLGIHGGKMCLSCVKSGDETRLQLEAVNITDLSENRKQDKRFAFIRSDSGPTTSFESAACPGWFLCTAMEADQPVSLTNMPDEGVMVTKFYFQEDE
Method: as §1

IL-18 = molecular target: T5, IL-18 (human, UniProt Q14116 37-193); assay: as above
T5 sequence (looked up): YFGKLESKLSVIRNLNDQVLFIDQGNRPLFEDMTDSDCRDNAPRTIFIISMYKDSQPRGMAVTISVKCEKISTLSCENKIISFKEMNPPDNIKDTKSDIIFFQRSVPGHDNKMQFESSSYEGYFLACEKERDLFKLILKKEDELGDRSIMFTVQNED
Method: as §1

IL-1α = molecular target: T6, IL-1α (human, UniProt P01583 113-271); assay: as above
T6 sequence (looked up): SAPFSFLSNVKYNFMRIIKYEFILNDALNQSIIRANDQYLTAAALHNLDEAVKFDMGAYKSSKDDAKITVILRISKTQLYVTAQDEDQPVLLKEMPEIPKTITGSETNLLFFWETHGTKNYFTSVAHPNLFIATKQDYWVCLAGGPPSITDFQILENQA
Method: as §1

IL-36γ = molecular target: T7, IL-36γ (human, UniProt Q9NZH8 18-169); assay: as above
T7 sequence (looked up): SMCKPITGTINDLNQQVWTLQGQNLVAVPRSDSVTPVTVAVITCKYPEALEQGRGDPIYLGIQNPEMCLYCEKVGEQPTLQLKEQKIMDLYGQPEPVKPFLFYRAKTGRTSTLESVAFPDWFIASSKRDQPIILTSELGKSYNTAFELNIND
Method: as §1

IL-37 = molecular target: T8, IL-37 (human, UniProt Q9NZH6 46-218, limits assumed); assay: as above
T8 sequence (looked up): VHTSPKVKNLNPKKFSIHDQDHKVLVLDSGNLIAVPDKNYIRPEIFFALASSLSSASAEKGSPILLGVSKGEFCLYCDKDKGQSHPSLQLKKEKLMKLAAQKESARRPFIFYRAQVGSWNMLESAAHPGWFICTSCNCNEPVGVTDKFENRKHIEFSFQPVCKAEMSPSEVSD
Method: as §1

IL-36RA = molecular target: T9, IL-36RA (human, UniProt Q9UBH0 2-155); assay: as above
T9 sequence (looked up): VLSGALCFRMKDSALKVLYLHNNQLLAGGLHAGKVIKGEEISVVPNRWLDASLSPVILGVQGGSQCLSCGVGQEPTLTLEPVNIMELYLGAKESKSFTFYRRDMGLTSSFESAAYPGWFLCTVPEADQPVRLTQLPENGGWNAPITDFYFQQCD
Method: as §1

Human IL-33 [5] = molecular target: T1, Human IL-33; assay: cell-based or functional assay; remark: listed apart in the source
Cynomolgus monkey IL-33 [6] = molecular target: T2, Cynomolgus monkey IL-33; assay: SPR (Biacore T100/T200), antibody captured on Protein A, 37° C., 1:1 model
Method: (§2) A CM4 chip containing immobilized Protein A (generated using standard NHS-EDC amine coupling) on all four flow cells (Fc) is used to employ a capture method. Antibody samples are prepared at 10 μg/mL in running buffer. Mouse, rat, and rabbit IL-33 samples are prepared at final concentrations of 1000, 500, 250, 125, 63, 31, 16, and 0 nM in running buffer. Human and Cynomologus IL-33 samples are prepared at final concentrations of 250, 125, 63, 31, 16, 8, 4, 2, 1, and 0 nM in running buffer. Each analysis cycle involves the steps of (1) capturing antibody samples on separate flow cells (Fc2, Fc3, or Fc4); (2) injecting 200 μL of IL-33 over all flow cells at 100 μL/min; (3) returning to buffer flow for a minimum of 10 min at 100 μL/min to monitor complex dissociation; (4) regenerating the chip surface with two sequential injections of 7.5 microliters of glycine, pH1.5; and (5) equilibrating the chip surface for 5 minutes prior to repeating the cycle. Each IL-33 concentration is injected in duplicate. Data is processed using standard double-referencing and fit to a 1:1 binding model using Biacore T100 Evaluation software, version 2.0.1, to determine the association rate (on-rate, kₒₙ, M⁻¹s⁻¹ units) and the dissociation rate (off-rate, koff, s⁻¹ units). The equilibrium dissociation constant (KD) is calculated from the relationship KD=koff/kₒₙ, and is in molar units. Three experimental replicates (n) are conducted for the binding of Antibody 43 to human and cynomolgus monkey IL-33.

Human IL-33 [7] = molecular target: T1, Human IL-33; assay: as above
Method: as §2

Cynomolgus monkey IL-33 [8] = molecular target: T2, Cynomolgus monkey IL-33; assay: SPR (Biacore), antibody captured on Protein A, 37° C., 1:1 model
Method: as §2

Human IL-33 [9] = molecular target: T1, Human IL-33; assay: as above
Method: as §2

Cynomolgus monkey IL-33 [10] = molecular target: T2, Cynomolgus monkey IL-33; assay: SPR affinities
Method: as §2, with “Three experimental replicates (n) are conducted for the binding of Antibody 43 to human and cynomolgus monkey IL-33.” left out

IC50 in the in vitro NFκB-GEC-luciferase activity assay [1]: 0.175 nM
IC50 in the in vitro NFκB-GEC-luciferase activity assay (Human IL-33 [2]): 0.426 nM
IC50 of inhibition of IL-33-induced GM-CSF secretion from human mast cells (Human IL-33 [2]): 7.6 nM
Molecule: Human monomeric ST2 (IL1RL1) (from UniProt Q01638 19-328) (receptor)

IC50 in the in vitro NFκB-GEC-luciferase activity assay (Cynomolgus monkey IL-33 [3]): 1.92 nM
IC50 in the in vitro NFκB-GEC-luciferase activity assay (Human IL-33 [4]): 0.33 nM
binding result (IL-36β): no binding (tested: 500 nM)
binding result (IL-36α): no binding (tested: 500 nM)
binding result (IL-1β): no binding (tested: 500 nM)
binding result (IL-1RA): no binding (tested: 500 nM)
binding result (IL-18): no binding (tested: 500 nM)
binding result (IL-1α): no binding (tested: 500 nM)
binding result (IL-36γ): no binding (tested: 500 nM)
binding result (IL-37): no binding (tested: 500 nM)
binding result (IL-36RA): no binding (tested: 500 nM)
IC50 of inhibition of IL-33-induced GM-CSF secretion from human mast cells (Human IL-33 [5]): 0.3 nM
Kd (Cynomolgus monkey IL-33 [6]): 0.338 nM
koff (Cynomolgus monkey IL-33 [6]): 0.00051 s⁻¹
kon (Cynomolgus monkey IL-33 [6]): 1.5e+06 M⁻¹ s⁻¹
Kd (Human IL-33 [7]): 0.049 nM
koff (Human IL-33 [7]): 7.2e-05 s⁻¹
kon (Human IL-33 [7]): 1.5e+06 M⁻¹ s⁻¹
B1: Antibody 43 (antibody, human IgG4 S228P, kappa, F234A L235A, V domains shown)
VH: EVQLVETGGGLIQPGGSLRLSCAASGFTFSFYAMSWVRQAPGKGLEWVSAISGSGGSTYYADSVKGRFTISRDNSKNTLYLQMNSLRAEDTAVYYCARTIHGIRAAYDAFIIWGQGTLVTVSS
VL: EIVLTQSPGTLSLSPGERATLSCRASQSVGINLSWYQQKPGQAPRLLIYGASHRLTGIPDRFSGSGSGTDFTLTISRLEPEDFAVYYCHQYSQPPPFTFGGGTKVEIKR
notes: Derived from Antibody 54 by engineering to reduce potential immunogenicity; expressed in CHO cells; also called Ab 43; Exemplified Antibody

IC50 in the in vitro NFκB-GEC-luciferase activity assay (Human IL-33 [4]): 0.286 nM
Kd (Cynomolgus monkey IL-33 [8]): 12.4 nM
koff (Cynomolgus monkey IL-33 [8]): 0.019 s⁻¹
kon (Cynomolgus monkey IL-33 [8]): 1.7e+06 M⁻¹ s⁻¹
Kd (Human IL-33 [9]): 0.0145 nM
koff (Human IL-33 [9]): 2.6e-05 s⁻¹
kon (Human IL-33 [9]): 1.7e+06 M⁻¹ s⁻¹
fold difference in species cross-reactivity (affinity to cynomolgus IL-33 against human IL-33) (Cynomolgus monkey IL-33 [10]): ~850 fold
B2: Antibody 75 (antibody, human IgG4 S228P, kappa, F234A L235A, V domains shown)
VH: B1 VH with F31S, I100L
VL: B1 VL with L55A, P94S
notes: Human IgG4 antibody; 3-53 heavy chain framework and A27 light chain framework with the CDRs of Antibody 23; also called Ab 75
